Data on six molecules can be found in US9375425B2, “Combination of a C-Met antagonist and an aminoheteroaryl compound for the treatment of cancer” (Pierre Fabre Medicament, priority 2008, dated 2016).

Read-outs that look alike come from different tables or passages of the source.

For one test, the system named is NCI-H441 NSCLC. Put plainly: In vivo activity of 224G11 and PF-02341066 as single treatments, NCI-H441 s.c. xenograft. The note with it: NCI-H441 s.c. in Athymic nude mice; for tumors growth of treated mice (FIG. 1): 224G11 i.p. 2 mg loading dose then 1 mg twice a week, PF-02341066 50 mg/kg p.o.; for antitumoral activity, single treatments compared with each other: same regimens. The method, then:
In order to verify that the NCI-H441 in vivo model available in the laboratory is sensible to both the 224G11 antibody and the PF-2341066 compound, immunocompromised mice engrafted subcutaneously with NCI-H441 were used. Briefly, NCI-H441 NSCLC cells from ATCC were cultured in RPMI 1640 medium, 10% FCS, 1% L-Glutamine. Cells were split two days before engraftment so that they were in exponential phase of growth. Ten million NCI-H441 cells were injected s.c. to Athymic nude mice. […] For the antibody treatment, mice were treated i.p. with a loading dose of 2 mg of 224G11 Mab/mouse and then twice a week with 1 mg of antibody/mouse. 50 mg/kg of PF-02341066 was administered p.o. (oral gavage), daily for a week and then 5 days a week with a double dose the fifth day. Treatment lasted during the whole experiment. Tumor volume was measured twice a week and calculated by the formula: π/6×length×width×height.

The next test deals with NCI-H441 cells. Put plainly: In vivo activity of a combination of 224G11 and PF-02341066, NCI-H441 xenograft. The arrangement: species or system Athymic nude mice. The note with it: day 53 post first injection; 224G11 i.p. 2 mg then 1 mg twice a week; PF-2341066 50 mg/kg p.o. The method, then: NCI-H441 cells from ATCC were routinely cultured in RPMI 1640 medium, 10% FCS, 1% L-Glutamine. Cells were split two days before engraftment so that they were in exponential phase of growth. Ten million NCI-H441 cells were engrafted to Athymic nude mice. […] For the antibody treatment, mice were treated i.p. with a loading dose of 2 mg of 224G11 Mab/mouse and then twice a week with 1 mg of antibody/mouse. 50 mg/kg of PF-2341066 was administered p.o. (oral gavage), daily for a week and then 5 days a week with a double dose the fifth day. The group of mice receiving both 224G11 and PF-2341066 was treated following the same modalities as the one described above for each compound. Tumor volume was measured twice a week and calculated by the formula: […]×length×width×height and animal weights were monitored every day over the period of treatment.
Statistical analysis was performed at each measured time using a Mann-Whitney test. In this experiment, mice of the control group were sacrificed on day 53 for ethical reasons. At day 53 post first injection, the average tumor volume of single modality treated groups is reduced by 64%, 73% and 93% for 224G11, PF-2341066 and 224G11+PF-2341066 respectively. […] No significant differences were observed between the 2 single modality treatment.

Another test has as its system c-Met mutations. The note with it: cited from earlier work.
The next test has as its target c-Met (Homo sapiens, UniProt P08581). The test is described as follows: Inhibition of c-Met dimerization by the antibodies.
The nature of test [1]: In vivo activity of the anti-c-Met antibodies.

c-Met, sequence (P08581 25-1390): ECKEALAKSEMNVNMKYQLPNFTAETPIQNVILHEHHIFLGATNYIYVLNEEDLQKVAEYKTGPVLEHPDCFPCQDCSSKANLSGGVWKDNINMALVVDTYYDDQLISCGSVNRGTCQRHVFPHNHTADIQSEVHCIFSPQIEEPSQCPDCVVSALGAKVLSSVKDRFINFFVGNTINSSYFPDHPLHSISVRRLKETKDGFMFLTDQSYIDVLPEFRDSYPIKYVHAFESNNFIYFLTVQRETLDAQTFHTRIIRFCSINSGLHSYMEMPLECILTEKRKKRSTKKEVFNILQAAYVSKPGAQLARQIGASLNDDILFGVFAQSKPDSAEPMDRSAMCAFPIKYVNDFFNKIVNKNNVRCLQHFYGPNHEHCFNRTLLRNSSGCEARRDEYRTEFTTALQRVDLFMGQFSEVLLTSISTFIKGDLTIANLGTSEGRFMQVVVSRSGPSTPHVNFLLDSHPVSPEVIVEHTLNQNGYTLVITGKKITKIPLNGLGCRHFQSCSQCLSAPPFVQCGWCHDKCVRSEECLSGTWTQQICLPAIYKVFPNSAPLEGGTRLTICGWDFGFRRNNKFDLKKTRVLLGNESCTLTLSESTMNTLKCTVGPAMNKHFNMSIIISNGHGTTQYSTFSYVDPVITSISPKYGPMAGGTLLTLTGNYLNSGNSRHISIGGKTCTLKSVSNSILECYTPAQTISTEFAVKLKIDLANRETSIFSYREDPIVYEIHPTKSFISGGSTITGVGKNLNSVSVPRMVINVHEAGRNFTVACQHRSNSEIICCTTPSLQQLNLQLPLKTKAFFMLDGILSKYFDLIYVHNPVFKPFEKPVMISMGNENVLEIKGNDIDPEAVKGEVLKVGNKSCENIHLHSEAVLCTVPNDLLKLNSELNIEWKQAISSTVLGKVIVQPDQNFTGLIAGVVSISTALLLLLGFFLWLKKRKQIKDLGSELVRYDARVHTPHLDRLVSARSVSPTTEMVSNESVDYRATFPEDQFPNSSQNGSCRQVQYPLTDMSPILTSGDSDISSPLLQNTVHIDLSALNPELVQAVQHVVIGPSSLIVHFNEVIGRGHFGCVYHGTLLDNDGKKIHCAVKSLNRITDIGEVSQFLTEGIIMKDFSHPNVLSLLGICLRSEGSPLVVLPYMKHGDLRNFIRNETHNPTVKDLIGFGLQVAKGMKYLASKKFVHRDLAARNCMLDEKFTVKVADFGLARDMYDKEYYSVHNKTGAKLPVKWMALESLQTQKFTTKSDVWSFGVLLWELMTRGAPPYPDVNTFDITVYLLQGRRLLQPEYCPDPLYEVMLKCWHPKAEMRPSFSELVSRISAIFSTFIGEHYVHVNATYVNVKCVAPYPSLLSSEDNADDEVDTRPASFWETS

Regarding `C[C@@H](Oc1cc(-c2cnn(C3CCNCC3)c2)cnc1N)c1c(Cl)ccc(F)c1Cl` [PF-02341066, 3-[(R)-1-(2,6-Dichloro-3-fluoro-phenyl)-ethoxy]-5-(1-piperidin-4-yl-1H-pyrazol-4-yl)-pyridin-2-ylamine, reference compound], in the test with NCI-H441 NSCLC, the “tumors growth of treated mice (FIG. 1)” value is on record as “significant difference in tumors growth” and the “antitumoral activity, single treatments compared with each other” value was “comparable antitumoral activities”. For the same molecule, in the test on NCI-H441 cells, the “average tumor volume reduced by” value was found to be 73%.

Take `Cc1[nH]c(/C=C2\C(=O)Nc3ccc(S(=O)(=O)N(C)c4cccc(Cl)c4)cc32)c(C)c1C(=O)N1CCN(C)CC1` [SU11274]: the “sensitivity of c-Met mutation to the agent” value in the test on c-Met mutations (H1112Y mutation, decreased cell growth and motility) was “sensitive”; in the test with c-Met mutations (L1213V mutation), “resistant”; with c-Met mutations (M1268T mutation, decreased cell growth and motility), “sensitive”; with c-Met mutations (Y1248 mutation), “resistant”.

B1: 224G11: monoclonal antibody antagonist to c-Met secreted by murine hybridoma CNCM I-3731; heavy chain SEQ ID No. 18, light chain SEQ ID No. 21 (antibody, V domains shown)
VH: EVQLQQSGPELVKPGASVKISCKTSGYIFTAYTMHWVRQSLGESLDWIGGIKPNNGLANYNQKFKGKATLTVDKSSSTAYMDLRSLTSEDSAVYYCARSEITTEFDYWGQGTALTVSS
VL: DIVLTQSPASLAVSLGQRATISCRASESVDSYANSFMHWYQQKPGQPPKLLIYRASNLESGIPARFSGSGSRTDFTLTINPVEADDVATYYCQQSKEDPLTFGSGTKLEMK
modifications: mus musculus
For B1, in the test with NCI-H441 NSCLC, the “tumors growth of treated mice (FIG. 1)” value was “significant difference in tumors growth” and the “antitumoral activity, single treatments compared with each other” value was “comparable antitumoral activities”. In the test with NCI-H441 cells, the “average tumor volume reduced by” value came to 64%. Also, the c-Met dimerization result with c-Met is recorded as “inhibit the c-Met dimerization”. In addition, the activity in vivo entry in test [1] is recorded as “active in vivo”.

B2: 227H1: monoclonal antibody antagonist to c-Met, hybridoma CNCM I-3732; heavy chain SEQ ID No. 19, light chain SEQ ID No. 22 (antibody, V domains shown)
VH: EVQLQQSGPELVKPGASMKISCKASGYSFTDYTLNWVKQSHGKTLEWIGLINPYNGGTTYNQKFKGKATLTVDKSSSTAYMELLSLTSEDSAVYYCAREEITKDFDFWGQGTTLTVSS
VL: GIVLTQSPASLAVSLGQRATISCRVSESIDTYGNSFIHWYQQKPGQPPKLLIYRASNLESGIPARFSGSGSRTDFTLTINPVEADDSATYYCQQSNEDPFTFGSGTKLEMK
modifications: mus musculus
In the case of B2, in the test with c-Met, the c-Met dimerization entry is “inhibit the c-Met dimerization”. Further, the activity in vivo entry in test [1] is “active in vivo”.

B3: 11E1: monoclonal antibody antagonist to c-Met, hybridoma CNCM I-3724; heavy chain SEQ ID No. 53, light chain SEQ ID No. 54 (antibody, V domains shown)
VH: QVQLQQSGAELAKPGASVKMSCKASGYTFTSYWMNWVKQRPGQGLEWIGYINPTTGSTDYNQKLKDKATLTADKSSNTAYMQLSSLTSEDSAVYYCAIGGYGSWFAYWGQGTLVTVSA
VL: QIVLTQSPAIMSASPGEKVTLTCSASSSVSSTYLYWYQQKPGSSPKLWIYTTSILASGVPARFSGSGSGTSYSLTISSMETEDAASYFCHQWSSYPFTFGSGTKLDIK
modifications: mus musculus
As to B3, the c-Met dimerization entry with c-Met was “inhibit the c-Met dimerization”. In test [1], the activity in vivo entry was “active in vivo”.

B4: 223C4: monoclonal antibody antagonist to c-Met, hybridoma CNCM I-3786; heavy chain SEQ ID No. 20, light chain SEQ ID No. 23 (antibody, V domains shown)
VH: EVLLQQSGPELVKPGASVKIPCKASGYTFTDYNMDWVKQSHGMSLEWIGDINPNNGGTIFNQKFKGKATLTVDKSSSTAYMELRSLTSEDTAVYYCARGRYVGYYYAMDYWGQGTSVTVSS
VL: DIQMTQSPASLSVSVGETVTITCRASENIYSNLAWYQQKQGKSPQLLVYAATNLVDGVPSRFSGSGSGTQYSLKINSLQSEDFGSYYCQHFWGPPYTFGGGTKLEIK
modifications: mus musculus
As for B4, in the test with c-Met, the c-Met dimerization result is reported as “inhibit the c-Met dimerization”. Also, the activity in vivo result in test [1] is “active in vivo”.
